In patent publication US20210403586A1, “MUTANT OF RANKL AND PHARMACEUTICAL COMPOSITION COMPRISING SAME FOR PREVENTING OR TREATING OSTEOPOROSIS” (INDUSTRY-ACADEMIC COOPERATION FOUNDATION CHOSUN UNIVERSITY, priority 2018, published 2021):

How the values were obtained:
RANKL = assay: ELISA of serum RANKL levels; format: in vivo, mouse; conditions: wtRANKL 2.0 mg/kg s.c. to non-immunized mice, or to mice immunized with mtRANKL
Experimental: A commercially available enzyme immunoassay kit (R & D Systems, Minn., USA) was used to measure RANKL levels in the serum of mice according to the manufacturer's protocol. Absorbance (450 nm) was measured in a colorimetric microplate reader (BioTek, Winooski, USA). The reading of the absorbance was then subtracted from the reading at 570 nm.
(§1) 17-week-old […] BALB/c mice were equally divided into 3 groups. The group was divided into a negative control group in which PBS was intraperitoneally injected, a group in which only wtRANKL was injected, and a group in which wtRANKL was injected after immunization with mtRANKL for 52 days. mtRANKL was injected after mixing with an aluminum hydroxide adjuvant. The immunization process started with 1st immunization of mtRANKL at 52 days, 2nd immunization at 39 days, 3rd immunization at 14 days each before injection of wtRANKL, and a total of 3 immunizations was performed. The amount of mtRANKL was 0.2 mg per mouse.
(§2) After 52 days, PBS was injected into the negative control group and wtRANKL was injected into the other two groups. Next day, wtRANKL was injected once more. wtRANK was subcutaneously injected (2.0 mg/kg). Serum was collected to determine the titer of anti-RANKL antibody. Then, after extracting tibias, the adhesive soft tissues of tibias were removed.

BMMs [1] = assay: F-actin ring formation assay; format: cell-based, mouse; conditions: mRANKL-MT3 150 ng/mL
Experimental: (§3) We used bone-resorption and F-actin ring formation assays to investigate osteoclast activity. To observe bone resorption in vitro, BMMs were cultured in Corning Osteo Assay Surface 96-well Multiple Well Plates (Sigma) with 30 ng/mL M-CSF and 75 ng/mL sRANKL (soluble RANKL; R&D Systems) or isolated RANKL for 6 days. Then, the plates were washed with pure water. To monitor actin ring formation, BMMs were grown on glass slides. After culture, the cells were fixed with 4% formalin, permeabilized with 0.5% Triton X100 in PBS for 5 min at room temperature, and incubated with 0.5 mg/mL TRITC-labelled phalloidin for 30 min. The cells were then rinsed with PBS. F-actin rings were visualized using a fluorescence ECLIPSE Ts2R microscope (Nikon, Tokyo, Japan).

wtRANKL-induced mouse = assay: mtRANKL immunization in wtRANKL-induced osteoporosis mice, micro-CT; format: in vivo
Experimental: The right femur of each mouse subjected to each experiment was incised and CT imaging was performed using a Quantum GX pCT imaging system (PerkinElmer, Hopkinton, Mass., USA) located at the Korea Basic Science Institute in Gwangju. As for the X-ray source, the field of view was set to 45 mm, 90 kV and […] (voxel size, 90 μm; scanning time, 14 minutes). CT imaging was performed using a Quantum GX 3D Viewer software. After scanning, image segmentation was performed in Analyze (AnalyzeDirect, Overland Park, Kans., USA). Briefly, the legs were segmented using semi-automatic and manual tools (e.g., object extractor, area expansion, and object separator) using volume editing tools. Then, a 3D rendering of the leg was created, and bone mineral density (BMD), bone volume (BV), bone volume percentage (%), and trabecular thickness were calculated using the ROI tools.
as §1, §2
To examine whether RANKL has a bone destruction effect when RANKL was injected after immunization with mtRANKL, micro-CT analysis was performed by the method of Reference Example 6.

RANK and LGR4 signaling = assay: Western blots of RANK and LGR4 signaling pathway proteins, RANKL variants; format: cell-based, mouse
Experimental: Proteins were separated by SDS-PAGE and electropermeated into a nitrocellulose membrane (Bio-Rad). After blocking the membrane with 5% (weight/volume) skim milk in TBST [10 mM Tris (pH 7.5), 150 mM NaCl, 0.1% (vol/vol) Tween 20], each mouse serum for primary antibody in the blocking solution was examined. The membrane was washed three times with Tris buffered saline. […] peroxidase (HRP)-conjugated secondary antibody was diluted 1:5000 with TBST in 1% (wt/vol) skim milk powder. ECL_system (Amersham Pharmacia Biotech) was used as the membrane.
Primary antibodies: AKT (Cell Signaling Technology, 1:1000), phospho-AKT (Cell Signaling Technology, #9271S, 1:1000), p38 (Cell Signaling Technology, 9212S, 1:1000), phospho-p38 (Cell Signaling Technology, #9211S, 1:1000), ERK (Cell Signaling Technology, 9102S, 1:1000), phospho-ERK (Cell Signaling Technology, #9101S, 1:1000), JNK (Cell Signaling Technology, 9252S, 1:1000), phosphoJNK (Cell Signaling Technology, #9251S, 1:1000), GSK-3β (Cell Signaling Technology, 9315S, 1:1000), phosphoGSK-3β (Cell Signaling Technology, #9336S, 1:1000), Src (Cell Signaling Technology, 2108S, 1:1000), phosphoSrc (Cell Signaling Technology, #2105S, 1:1000), NF-KB p65 (Cell Signaling Technology, #3034, 1:1000), phosphop65 (Cell Signaling Technology, #3031, 1:1000), RANK (Cell Signaling Technology, 4845S, 1:1000), Gaq (Cell Signaling Technology, 14373S, 1:1000), LGR4 (MyBioSource, MBS468030, 1:500), 20112360C-1, and GAPDH (Santa-Cruz Biotechnology, 1:2500).
To investigate the interaction of mRANKL variants and RANK, the co-immunoprecipitation (Co-IP) assays were carried out using mRANKL-WT/mRANKL-MT3 and RANK/LGR4 (FIG. 12A). In addition, wild-type RANKL induced MAPK, AKT, NF-κB p65, and GSK-3 phosphorylation, which is involved in LGR4 signaling (FIG. 12B).

BMMs [2] = assay: Bone-resorption assay (Osteo Assay Surface plates); format: cell-based, mouse; conditions: 6 days, mRANKL-MT3 150 ng/mL
Experimental: as §3

[3] = wtRANKL-injected mice vs mtRANKL-immunized mice with wtRANKL injection

B1: mRANKL-MT3: mouse RANKL mutant: K180R, D189I, R190K, H223F, H224Y; nucleic acid SEQ ID NO: 3 (protein, UniProt O35235 158-316, looked up, variant K180R D189I R190K H223F H224Y)
chain: KPEAQPFAHLTINAASIPSGSHRVTLSSWYHIKGWAKISNMTLSNGKLRVNQDGFYYLYANICFRFYETSGSVPTDYLQLMVYVVKTSIKIPSSHNLMKGGSTKNWSGNSEFHFYSINVGGFFKLRAGEEISIQVSNPSLLDPDQDATYFGAFKVQDID
In the case of B1, the “level of RANKL in the blood (ELISA)” value (RANKL) is reported as “eliminated”, the F-actin ring formation (BMMs [1]) is reported as “no resorption pits or F-actin rings were observed” and the “bone volume and percentage of bone volume” value (wtRANKL-induced mouse; compared with PBS-treated mice) is reported as “maintained at similar levels”. For the same molecule, the BMD of tibias (wtRANKL-induced mouse; [3]) was 795.8 ± 11.9 mg/mL, the “trabecular bone architecture of proximal tibias (micro-CT)” value (wtRANKL-induced mouse; [3]) was “thicker fibers and higher density than the wtRANKL-injected mice” and the GSK-3 phosphorylation (RANK and LGR4 signaling; BMMs, Western blot) was “induced”. For the same molecule, the “MAPK, AKT, and NF-κB p65 phosphorylation” value (RANK and LGR4 signaling; BMMs, Western blot) was “lower”, the src phosphorylation (RANK and LGR4 signaling; mRANKL-MT3-induced BMMs vs mRANKL-WT induced BMMs) was “significantly lower” and the resorption pits (BMMs [2]) was “no resorption pits”.
